{"source": "paper PMC8602290", "about": "“G3BP1 inhibits Cul3^SPOP to amplify AR signaling and promote prostate cancer” (Nature Communications, 2021)", "binders": {"B1": {"name": "His-SPOP protein (affinity-purified) (natural protein, UniProt O43791 1-374, looked up)", "chain": "MSRVPSPPPPAEMSSGPVAESWCYTQIKVVKFSYMWTINNFSFCREEMGEVIKSSTFSSGANDKLKWCLRVNPKGLDEESKDYLSLYLLLVSCPKSEVRAKFKFSILNAKGEETKAMESQRAYRFVQGKDWGFKKFIRRDFLLDEANGLLPDDKLTLFCEVSVVQDSVNISGQNTMNMVKVPECRLADELGGLWENSRFTDCCLCVAGQEFQAHKAILAARSPVFSAMFEHEMEESKKNRVEINDVEPEVFKEMMCFIYTGKAPNLDKMADDLLAAADKYALERLKVMCEDALCSNLSVENAAEILILADLHSADQLKTQAVDFINYHASDVLETSGWKSMVVSHPHLVAEAYRSLASAQCPFLGPPRKRLKQS", "notes": "SPOP, recombinant His-tagged protein"}, "B2": {"name": "FLAG-G3BP1^RRM (22Rv1) (domain or fragment, UniProt Q13283 338-466, looked up)", "chain": "DSHQLFIGNLPHEVDKSELKDFFQSYGNVVELRINSGGKLPNFGFVVFDDSEPVQKVLSNRPIMFRGEVRLNVEEKKTRAAREGDRRDNRLRGPGGPRGGLGGGMRGPPRGGMVQKPGFGVGRGLAPRQ", "notes": "also called FLAG-RRM; G3BP1^RRM-RGG; source: 22Rv1, transfected, in cells or lysate"}}, "key": {"[1]": {"target": "T1, His G3BP1 protein (affinity-purified) (UniProt Q13283 1-466)", "T1 construct": "G3BP1, recombinant His-tagged protein", "test": "co-IP; in vitro binding assay with affinity-purified proteins: 4 ug His-SPOP with 0.125, 0.25 or 0.75 ug His G3BP1 in 1 ml pulldown buffer, 4 C, 60 min, then 0.56 ug Myc-DEK; IP with anti-SPOP and protein G agarose; wash 50 mM Tris pH 7.5, 200 mM NaCl", "conditions": "both partners purified"}, "[2]": {"target": "T2, Myc-DEK protein (affinity-purified) (UniProt P35659 1-375)", "T2 construct": "DEK, recombinant Myc-tagged protein", "T2 sequence (looked up)": "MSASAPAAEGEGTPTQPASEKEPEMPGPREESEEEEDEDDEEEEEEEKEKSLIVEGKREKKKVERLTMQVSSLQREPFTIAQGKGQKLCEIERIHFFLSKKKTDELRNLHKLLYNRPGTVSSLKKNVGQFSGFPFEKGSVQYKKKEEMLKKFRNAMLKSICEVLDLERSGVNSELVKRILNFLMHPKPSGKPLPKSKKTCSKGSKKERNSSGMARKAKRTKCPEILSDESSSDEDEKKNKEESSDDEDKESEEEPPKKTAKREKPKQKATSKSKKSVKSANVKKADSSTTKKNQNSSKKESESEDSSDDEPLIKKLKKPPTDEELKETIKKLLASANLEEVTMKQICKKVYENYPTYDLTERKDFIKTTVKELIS", "test": "co-IP; in vitro binding assay with affinity-purified proteins: 4 ug His-SPOP with 0.125, 0.25 or 0.75 ug His G3BP1 in 1 ml pulldown buffer, 4 C, 60 min, then 0.56 ug Myc-DEK; IP with anti-SPOP and protein G agarose; wash 50 mM Tris pH 7.5, 200 mM NaCl", "conditions": "both partners purified"}, "[3]": {"target": "T3, Speckle-type POZ protein (SPOP), endogenous in 22Rv1 cells (human (endogenous in 22Rv1), UniProt O43791 1-374)", "T3 construct": "SPOP, endogenous protein of human 22Rv1 prostate cancer cells; also called endogenous SPOP; source: endogenous, 22Rv1 lysate or cells", "test": "proximity ligation; 22Rv1 cells transfected with FLAG-G3BP1 constructs; Duolink II kit, antibodies against FLAG-M2 and SPOP (endogenous); percentage of cells with signal", "conditions": "partners not purified"}}, "data": [{"binder": "B1", "values": [{"measurement": "binding result", "setting": "[1]", "value": "binds"}, {"measurement": "binding result", "setting": "[2]", "value": "binds"}]}, {"binder": "B2", "values": [{"measurement": "percentage of cells with PLA positive signal", "setting": "[3]", "value": 70, "unit": "%"}]}]}
